Source: US20210253725A1 (BIONTECH, published 2021)

Columns and labels:
[1] = biological target: T1, CD137 expressed on the cell surface of HT1080_4-1BB cells (human, UniProt Q07011 24-255); assay: cell-based or functional assay
[2] = biological target: T1, CD137 expressed on the cell surface of …; assay: HT1080_4-1BB cells, imaging; also: test concentration or dose not given here
[3] = biological target: T2, CD137 protein (His-tagged, Sino Biological Inc. 10041-H08H) (human, UniProt Q07011 24-186); assay: ELISA, coated His-tagged CD137; also: test concentration or dose not given here
T2 construct: bought protein coated on ELISA plates; also called 4-1BB; TNFRSF9; not shown: His tag

human 4-1BB (CD137) = human 4-1BB (CD137) (human, UniProt Q07011 24-255); assay: cell-based or functional assay
For Functional assay Cross-linked by F(ab′)2 fragment IL-8 in this document: test concentration or dose not given here.
For Functional assay IL-8 in this document: test concentration or dose not given here.

T1 sequence (Q07011 24-255): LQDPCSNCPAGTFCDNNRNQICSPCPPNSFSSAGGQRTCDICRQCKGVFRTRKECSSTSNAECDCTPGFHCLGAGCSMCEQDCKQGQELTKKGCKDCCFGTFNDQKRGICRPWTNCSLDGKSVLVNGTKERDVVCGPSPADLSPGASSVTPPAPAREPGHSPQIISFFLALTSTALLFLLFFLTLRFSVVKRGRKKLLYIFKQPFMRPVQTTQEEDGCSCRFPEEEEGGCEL
human 4-1BB (CD137), sequence (Q07011 24-255): as above

B1: P018.S.08.A.E03 (antibody, V domains shown)
VH: QSVEESGGRLVTPGTPLTLTCTVSGFSLTYYAVTWVRQPPGKGLEWIGVIYDNGATAFATWAKGRFTMSKNSTTVALKVTSPTTEDTATYFCARSANNAWSTYSNLWGQGTLVTVSS
VL: DIVMTQTPSSVSAAVGGTVTINCQASEDISSYLSWYQQKLGQPPKLLIYKASTLESGVPSRFKGSGSGTEYTLTISDLESDDAATYYCQSYYSGSISGYGFVFGGGTGVVVK
notes: V regions on human Ig constant parts; also called AB137_2
Functional assay Cross-linked by F(ab′)2 fragment IL-8 [1]: 2.02 abs. corr.
Functional assay IL-8 [1]: -0.304 abs. corr.
Cellular binding assay [RFU] [2]: 9 RFU
ELISA [abs. corr.] [3]: 3.05 abs. corr.

B2: P018.S.14.A.H01 (antibody, V domains shown)
VH: QSVEESGGRLVTPGTPLTLTCTVSGFSLSDYYMTWVRQAPGKGLEYIGIMSGSGSTYYASWAKGRFTISKTSSTTLELKITSPTTEDTAIYFCARDGDYAGWGYATGAFDPWGPGTLVTVSS
VL: AAVLTQTPSPVSAAVGGTVTISCQASQSVVGNSLLSWFQKKPGQPPKLLIYSASSLASGVPSRFKGSGSGTQFTLTISDLESDDAATYYCTGRYNSDTDTFVFGGGTEVVVK
notes: V regions on human Ig constant parts; also called AB137_12
Functional assay Cross-linked by F(ab′)2 fragment IL-8 [1]: 2.19 abs. corr.
Functional assay IL-8 [1]: 2.02 abs. corr.
Cellular binding assay [RFU] [2]: 6 RFU
ELISA [abs. corr.] [3]: 2.97 abs. corr.

B3: P018.S.13.A.A05 (antibody, V domains shown)
VH: QSLEESGGRLVTPGTPLTLTCTASGFSLSRYDMSWVRQAPGKGLEYIGVISSSGGTNYANWAKGRFTISKTSTTVDLKITSPTTEDTATYFCAREGDYWDFNLWGPGTLVTVSS
VL: AQVLTQTPSSVSAAVGGTVTINCQASQSISNLLAWYQQKPGQPPKLLIYGASTLASGVPSRFSGSGSGTEFTLTISDLESDDAATYYCAGGFPGLDTVAAFGGGTEAVVT
notes: V regions on human Ig constant parts; also called AB137_4
Functional assay Cross-linked by F(ab′)2 fragment IL-8 [1]: 2.57 abs. corr.
Functional assay IL-8 [1]: 0.559 abs. corr.
Cellular binding assay [RFU] [2]: 0 RFU
ELISA [abs. corr.] [3]: 0.687 abs. corr.

B4: P018.S.13.A.G04 (antibody, V domains shown)
VH: QSLEESGGRLVTPGTPLTLTCTASGFSLSSYDMSWVRQAPGKGLEYIGYISSSGNTYYASWAKSRFTISKTSTTVDLKITSPTTEDTATYFCAREGDYWDFNLWGPGTLVTVSS
VL: AQVLTQTPSSVSAAVGGTVTINCQASQSISNLLAWYQQKPGQRPRLLIYRASTLASGVPSRFKGSGSGTEFTLTISDLESEDAATYYCAGGFPGLDTGATFGGGTEAVVT
notes: V regions on human Ig constant parts; also called AB137_8
Functional assay Cross-linked by F(ab′)2 fragment IL-8 [1]: 1.8 abs. corr.
Functional assay IL-8 [1]: -0.179 abs. corr.
Cellular binding assay [RFU] [2]: 1 RFU
ELISA [abs. corr.] [3]: 0.577 abs. corr.

B5: P018.S.13.A.G04 (antibody, V domains shown)
VH: QSLEESGGRLVTPGTPLTLTCTASGFSLSSYDMSWVRQAPGKGLEYIGYISSSGNTYYASWAKSRFTISKTSTTVDLKITSPTTEDTATYFCAREGDYWDFNLWGPGTLVTVSS
VL: AQVLTQTPSSVSAAVGGTVTINCQASQSISNLLAWYQQKPGQRPRLLIYRASTLASGVPSRFKGSGSGTEFTLTISDLESEDAATYYCAGGFPGLDTGATFGGGTEAVVT
EC 50 [ng/mL] of agonistic function (IL-8 release from CD137-overexpressing HT1080 cells, antibody cross-linked by F(ab')2 goat anti-human IgG) (human 4-1BB (CD137)): 255000 ng/mL

B6: P018.S.13.A.A06 (antibody, V domains shown)
VH: QSVEESGGRLVTPGTPLTLTCTASGFTISDFHVTWVRQAPGKGLEWIGTIITSASTTAYATWARGRFTISKSSTTVNLKIVSPTTEDTATYFCARSTYTDTSGYYFDFWGQGTLVTVSS
VL: AQVLTQTASPVSAAVGGTVIINCQSSQSIYNGNRLSWYQQKPGQPPKLLIYSASTLASGVSSRFKGSGSGTQFTLAISDVQSDDAATYYCLGSYDCDSADCFAFGGGTEVVVE
notes: V regions on human Ig constant parts; also called AB137_5
Functional assay Cross-linked by F(ab′)2 fragment IL-8 [1]: 1.71 abs. corr.
Functional assay IL-8 [1]: -0.153 abs. corr.
Cellular binding assay [RFU] [2]: 38 RFU
ELISA [abs. corr.] [3]: 3.39 abs. corr.
